# Test results taken from US7741096B2, “Crystal structure of hepatocyte growth factor activator complexed with Kunitz domain inhibitor” (Genentech, Inc., priority 2004, dated 2010).
# Experiments:
# uPA = target: T1, uPA (Homo sapiens, UniProt P00749); assay: Chromogenic substrate enzyme inhibition assay, uPA; format: biochemical; conditions: substrate S2444, read-out: KD1 IC50
# T1 construct: purchased Chemicon
# From the text: (§1) The following synthetic substrates were used to measure enzyme activities: Spectrozyme® fvIIa (American Diagnostica, Stamford, Conn.) for HGFA and ChromozymtPA (Roche Molecular Biochemicals, Indianapolis, Ind.) for tissue factor/FVIIa. The following substrates were from Diapharma, Westchester, Ohio: S2222 for factor Xa, S2302 for plasma kallikrein, S2366 for activated protein C, thrombin, hepsin and plasmin, S2444 for uPA, S2288 for factor XIa, FXIIa and tPA, S2765 for matriptase complement factor C1s, chymotrypsin and trypsin. Except for bovine trypsin (Worthington, Lakewood, N.J.), all enzymes used were of human origin. Factor Xa, factor XIa, thrombin, activated protein C and plasmin were from Haematologic Technologies (Essex Junction, Vt.). […]
# (§2) The inhibitory activity of KD1 towards a panel of trypsin-like serine proteases was examined using assay conditions as described for measuring the inhibitory activity of HAI-1B ectodomain. […] After 20 min. incubation at room temperature, the appropriate substrate was added and the linear rates of substrate hydrolysis were determined by measuring the change in absorbance at 405 nm on a kinetic microplate reader (Molecular Devices, Sunnyvale, Calif.). […]
# Thrombin = target: T2, Thrombin (Homo sapiens, UniProt P00734); assay: Chromogenic substrate enzyme inhibition assay, thrombin; format: biochemical; conditions: substrate S2366, read-out: KD1 IC50
# T2 construct: purchased Haematologic Technologies
# From the text: as §1, §2
substance,measurement,setting,value
"KD1: The first Kunitz domain of human HAI-1B, amino acids 246-303 (SEQ ID NO: 4), with polyhistidine leader, expressed in E. coli",IC50,uPA,> 1000 nM
same,IC50,Thrombin,> 1000 nM
